Experimental data: the supplement of paper PMC9112550, “Optimization of the antimicrobial peptide Bac7 by deep mutational scanning” (BMC Biology, 2022)

What follows are sequences tested on Escherichia coli TOP10 (assay: shrunken log2 fold change of peptide-encoding DNA abundance (4.5 h post-induction vs induction); higher = less antimicrobial activity (less host growth inhibition)). Details: time post-induction: 4.5 h; library: site-saturation at positions 5, 18, 19, 20.
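Further: peptides expressed intracellularly from a pBAD plasmid library in pooled LB shake-flask culture, induced with 0.3% L-arabinose, DNA abundance read by NGS, three biological replicates, DESeq2 with apeglm shrinkage.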

Sequence | shrunken log2 fold change
RRIRPRPPRLPRPRPRPLMMPRP | -0.204
RRIRARPPRLPRPRPRPLENPRP | 0.595
RRIRFRPPRLPRPRPRPNTIPRP | -0.409
RRIRRRPPRLPRPRPRPCLEPRP | 0.11
RRIRARPPRLPRPRPRPHFCPRP | -0.105
RRIRNRPPRLPRPRPRPEVKPRP | -0.031
RRIRMRPPRLPRPRPRPAKAPRP | 0.0749
RRIRLRPPRLPRPRPRPSDHPRP | -0.293
RRIRLRPPRLPRPRPRPPEGPRP | 0.662
RRIRLRPPRLPRPRPRPTTRPRP | 0.34
RRIRGRPPRLPRPRPRPSPTPRP | 0.828
RRIRNRPPRLPRPRPRPVRMPRP | -0.132
RRIRTRPPRLPRPRPRPCWCPRP | -0.0474
RRIRDRPPRLPRPRPRPNCDPRP | -0.144
RRIRARPPRLPRPRPRPYERPRP | 0.0697
RRIRMRPPRLPRPRPRPNHNPRP | -0.687
RRIRRRPPRLPRPRPRPEADPRP | 0.774
RRIRWRPPRLPRPRPRPDKGPRP | 0.0389
RRIRIRPPRLPRPRPRPPPWPRP | 0.508
RRIRWRPPRLPRPRPRPIIYPRP | -0.327
RRIRSRPPRLPRPRPRPVVTPRP | 0.021
RRIRIRPPRLPRPRPRPSLDPRP | -0.564
RRIRWRPPRLPRPRPRPPKWPRP | 0.627
RRIRLRPPRLPRPRPRPIREPRP | -0.27
RRIRKRPPRLPRPRPRPMDYPRP | 0.0283

Sequence | shrunken log2 fold change
RRIRWRPPRLPRPRPRPNDIPRP | -0.565
RRIRQRPPRLPRPRPRPCYHPRP | -0.947
RRIRRRPPRLPRPRPRPRWGPRP | 0.533
RRIRGRPPRLPRPRPRPPVWPRP | 0.861
RRIRSRPPRLPRPRPRPVMIPRP | -0.0753
RRIRRRPPRLPRPRPRPPNFPRP | 0.0782
RRIRFRPPRLPRPRPRPEITPRP | -0.208
RRIRWRPPRLPRPRPRPPSCPRP | 0.0112
RRIRSRPPRLPRPRPRPSNCPRP | -0.525
RRIRTRPPRLPRPRPRPYPIPRP | 0.00205
RRIRERPPRLPRPRPRPYMAPRP | -0.137
RRIRQRPPRLPRPRPRPTSDPRP | -0.358
RRIRRRPPRLPRPRPRPYKGPRP | 0.0251
RRIRLRPPRLPRPRPRPLLIPRP | -0.514
RRIRFRPPRLPRPRPRPTEVPRP | -0.0247
RRIRCRPPRLPRPRPRPMYPPRP | -0.375
RRIRMRPPRLPRPRPRPRYSPRP | -0.342
RRIRMRPPRLPRPRPRPMASPRP | 0.00888
RRIRLRPPRLPRPRPRPLDDPRP | -0.144
RRIRDRPPRLPRPRPRPRGFPRP | 0.586
RRIRHRPPRLPRPRPRPRTPPRP | 0.314
RRIRRRPPRLPRPRPRPFMPPRP | -0.00307
RRIRKRPPRLPRPRPRPYHWPRP | -0.164
RRIRWRPPRLPRPRPRPANTPRP | -0.0364
RRIRFRPPRLPRPRPRPAQSPRP | 0.0902

Sequence | shrunken log2 fold change
RRIRYRPPRLPRPRPRPKHYPRP | -0.895
RRIRGRPPRLPRPRPRPTSQPRP | 0.87
RRIRTRPPRLPRPRPRPVRNPRP | 0.509
RRIRVRPPRLPRPRPRPDCVPRP | 0.0012
RRIRCRPPRLPRPRPRPMSMPRP | -0.212
RRIRGRPPRLPRPRPRPWFRPRP | -0.0346
RRIRLRPPRLPRPRPRPAHLPRP | 0.343
RRIRGRPPRLPRPRPRPQVSPRP | 0.0928
RRIRSRPPRLPRPRPRPPAQPRP | 0.922
RRIRPRPPRLPRPRPRPIVTPRP | -0.164
RRIRIRPPRLPRPRPRPNPGPRP | -0.209
RRIRWRPPRLPRPRPRPRYWPRP | 0.185
RRIRFRPPRLPRPRPRPRMFPRP | 0.169
RRIRARPPRLPRPRPRPKFKPRP | -0.0259
RRIRTRPPRLPRPRPRPNDTPRP | -0.387
RRIRPRPPRLPRPRPRPCKYPRP | -0.499
RRIRHRPPRLPRPRPRPLYKPRP | -0.272
RRIRKRPPRLPRPRPRPDLFPRP | 0.529
RRIRNRPPRLPRPRPRPGVAPRP | 0.135
RRIRLRPPRLPRPRPRPWNEPRP | -0.11
RRIRIRPPRLPRPRPRPSSLPRP | -0.713
RRIRARPPRLPRPRPRPWLDPRP | 0.0658
RRIRHRPPRLPRPRPRPIQKPRP | -0.00174
RRIRYRPPRLPRPRPRPTGIPRP | -0.114
RRIRGRPPRLPRPRPRPWGYPRP | 0.094
